Where two headings read alike, the source gives them in different places. Where no end group is shown, it is not given here.
What was measured:
[1] = molecular target: T1, Human TROP2 ECD (31-274 AA), biotinylated (human, UniProt P09758 31-274, biotinylated (site not stated)); assay: ELISA on immobilized TROP2
T1 construct: also called tumor-associated calcium signal transducer 2; Human TROP2-biotin
T1 sequence: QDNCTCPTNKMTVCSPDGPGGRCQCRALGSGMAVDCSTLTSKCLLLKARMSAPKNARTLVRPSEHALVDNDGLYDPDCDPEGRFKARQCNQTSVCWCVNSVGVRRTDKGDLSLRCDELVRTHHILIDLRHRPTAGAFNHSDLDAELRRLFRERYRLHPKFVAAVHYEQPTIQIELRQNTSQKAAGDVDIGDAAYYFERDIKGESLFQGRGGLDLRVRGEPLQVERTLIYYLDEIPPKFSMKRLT

[2] = molecular target: T1, Human TROP2 ECD (31-274 AA), …; assay: ELISA on immobilized TROP2; remark: listed apart in the source
TBD-17 (HC S104A) [3] = molecular target: T2, TBD-17 (HC S104A); assay: competition ELISA, peptide vs Fab binding to captured biotin-TROP2
T2 construct: Fab; also called HC S104A mutant

TBD-1 wt [4] = molecular target: T3, TBD-1 wt; assay: as above
T3 construct: Fab; the heavy chain entry is VH-CH1; also called wild-type anti-TROP2 Fab (hRS7); TROP2 Fab

TBD-11 (HC R98A) [5] = molecular target: T4, TBD-11 (HC R98A); assay: as above
T4 construct: Fab; also called HC R98A mutant

TBD-22 (HC D109A) [6] = molecular target: T5, TBD-22 (HC D109A); assay: as above
T5 construct: Fab; also called HC D109A mutant

TBD-6 (LC I93A) [7] = molecular target: T6, TBD-6 (LC I93A); assay: as above
T6 construct: Fab; also called LC I93A mutant

TBD-21 (HC F108A) [8] = molecular target: T7, TBD-21 (HC F108A); assay: as above
T7 construct: Fab; also called HC F108A mutant

TBD-17 (HC S104A) [9] = molecular target: T2, TBD-17 (HC S104A); assay: as above; remark: listed apart in the source
TBD-1 wt [10] = molecular target: T3, TBD-1 wt; assay: as above; remark: listed apart in the source
TBD-11 (HC R98A) [11] = molecular target: T4, TBD-11 (HC R98A); assay: as above; remark: listed apart in the source
TBD-22 (HC D109A) [12] = molecular target: T5, TBD-22 (HC D109A); assay: as above; remark: listed apart in the source
TBD-6 (LC I93A) [13] = molecular target: T6, TBD-6 (LC I93A); assay: as above; remark: listed apart in the source
TBD-21 (HC F108A) [14] = molecular target: T7, TBD-21 (HC F108A); assay: as above; remark: listed apart in the source

B1: PC-12 (bispecific antibody)
light: GGVDFCGLYHWPICYQGGGGSGGLSGRSDAGSPLGLAGSGGSDIQLTQSPSSLSASVGDRVSITCKASQDVSIAVAWYQQKPGKAPKLLIYSASYRYTGVPDRFSGSGSGTDFTLTISSLQPEDFAVYYCQQHYITPLTFGAGTKVEIKRTVAAPSVFIFPPSDEQLKSGTASVVCLLNNFYPREAKVQWKVDNALQSGNSQESVTEQDSKDSTYSLSSTLTLSKADYEKHKVYACEVTHQGLSSPVTKSFNRGEC
heavy: not shown
notes: anti-TROP2 R98A
In the case of B1, the EC50 [1] is reported as 352 nM.

B2: PC-14 (bispecific antibody)
light: GGVDFCGLYHWPICYQGGGGSGGLSGRSDAGSPLGLAGSGGSDIQLTQSPSSLSASVGDRVSITCKASQDVSIAVAWYQQKPGKAPKLLIYSASYRYTGVPDRFSGSGSGTDFTLTISSLQPEDFAVYYCQQHYITPLTFGAGTKVEIKRTVAAPSVFIFPPSDEQLKSGTASVVCLLNNFYPREAKVQWKVDNALQSGNSQESVTEQDSKDSTYSLSSTLTLSKADYEKHKVYACEVTHQGLSSPVTKSFNRGEC
heavy: not shown
notes: anti-TROP2 F108A
B2 was tested, and the EC50 [1] was 333 nM.

B3: PC-16 (bispecific antibody)
light: GGIDFCAIYQWPVCRSGGGGSGGLSGRSDAGSPLGLAGSGGSDIQLTQSPSSLSASVGDRVSITCKASQDVSIAVAWYQQKPGKAPKLLIYSASYRYTGVPDRFSGSGSGTDFTLTISSLQPEDFAVYYCQQHYITPLTFGAGTKVEIKRTVAAPSVFIFPPSDEQLKSGTASVVCLLNNFYPREAKVQWKVDNALQSGNSQESVTEQDSKDSTYSLSSTLTLSKADYEKHKVYACEVTHQGLSSPVTKSFNRGEC
heavy: not shown
notes: anti-TROP2 D109A
With B3 the EC50 [2] was 69.8 nM.

B4: PC-20 (bispecific antibody)
light: GGVDFCALYHWPICYQGGGGSGGLSGRSDAGSPLGLAGSGGSDIQLTQSPSSLSASVGDRVSITCKASQDVSIAVAWYQQKPGKAPKLLIYSASYRYTGVPDRFSGSGSGTDFTLTISSLQPEDFAVYYCQQHYITPLTFGAGTKVEIKRTVAAPSVFIFPPSDEQLKSGTASVVCLLNNFYPREAKVQWKVDNALQSGNSQESVTEQDSKDSTYSLSSTLTLSKADYEKHKVYACEVTHQGLSSPVTKSFNRGEC
heavy: not shown
notes: anti-TROP2 D109A
For B4, the EC50 [2] was 74.3 nM.

B5: PC-22 (bispecific antibody)
light: GGVDFCGLYHWPICYQVGGGSGGLSGRSDAGSPLGLAGSGGSDIQLTQSPSSLSASVGDRVSITCKASQDVSIAVAWYQQKPGKAPKLLIYSASYRYTGVPDRFSGSGSGTDFTLTISSLQPEDFAVYYCQQHYITPLTFGAGTKVEIKRTVAAPSVFIFPPSDEQLKSGTASVVCLLNNFYPREAKVQWKVDNALQSGNSQESVTEQDSKDSTYSLSSTLTLSKADYEKHKVYACEVTHQGLSSPVTKSFNRGEC
heavy: not shown
notes: anti-TROP2 R98A
With B5 the EC50 [2] was 142 nM.

B6: PC-24 (bispecific antibody)
light: GGVDFCGLYHWPICYQVGGGSGGLSGRSDAGSPLGLAGSGGSDIQLTQSPSSLSASVGDRVSITCKASQDVSIAVAWYQQKPGKAPKLLIYSASYRYTGVPDRFSGSGSGTDFTLTISSLQPEDFAVYYCQQHYITPLTFGAGTKVEIKRTVAAPSVFIFPPSDEQLKSGTASVVCLLNNFYPREAKVQWKVDNALQSGNSQESVTEQDSKDSTYSLSSTLTLSKADYEKHKVYACEVTHQGLSSPVTKSFNRGEC
heavy: not shown
notes: anti-TROP2 D109A
B6 gave an EC50 [2] of 87.5 nM.

B7: PC-26 (bispecific antibody)
light: GGVDFCAIYSWPICKIGGGGSGGLSGRSDAGSPLGLAGSGGSDIQLTQSPSSLSASVGDRVSITCKASQDVSIAVAWYQQKPGKAPKLLIYSASYRYTGVPDRFSGSGSGTDFTLTISSLQPEDFAVYYCQQHYITPLTFGAGTKVEIKRTVAAPSVFIFPPSDEQLKSGTASVVCLLNNFYPREAKVQWKVDNALQSGNSQESVTEQDSKDSTYSLSSTLTLSKADYEKHKVYACEVTHQGLSSPVTKSFNRGEC
heavy: not shown
notes: anti-TROP2 D109A
Work on B7 yielded an EC50 [2] of 54.3 nM.

B8: PC-15 (bispecific antibody)
light: not shown
heavy: GGVDFCGLYHWPICYQGGGGSGGLSGRSDAGSPLGLAGSGGSQVQLQQSGSELKKPGASVKVSCKASGYTFTNYGMNWVKQAPGQGLKWMGWINTYTGEPTYTDDFKGRFAFSLDTSVSTAYLQISSLKADDTAVYFCARGGFGSSYWYADVWGQGSLVTVSSASTKGPSVFPLAPSSKSTSGGTAALGCLVKDYFPEPVTVSWNSGALTSGVHTFPAVLQSSGLYSLSSVVTVPSSSLGTQTYICNVNHKPSNTKVDKKVEPKSC
notes: anti-TROP2 F108A
Binder B8 has an EC50 [1] of 363 nM.

B9: TCE-3 (bispecific antibody)
light: not shown
heavy: QVQLQQSGSELKKPGASVKVSCKASGYTFTNYGMNWVKQAPGQGLKWMGWINTYTGEPTYTDDFKGRFAFSLDTSVSTAYLQISSLKADDTAVYFCAAGGFGSSYWYFDVWGQGSLVTVSSASTKGPSVFPLAPSSKSTSGGTAALGCLVKDYFPEPVTVSWNSGALTSGVHTFPAVLQSSGLYSLSSVVTVPSSSLGTQTYICNVNHKPSNTKVDKKVEPKSC
B9 showed an EC50 [1] of 3.18 nM.

B10: TCE-6 (bispecific antibody)
light: DIQLTQSPSSLSASVGDRVSITCKASQDVSIAVAWYQQKPGKAPKLLIYSASYRYTGVPDRFSGSGSGTDFTLTISSLQPEDFAVYYCQQHYITPLTFGAGTKVEIKRTVAAPSVFIFPPSDEQLKSGTASVVCLLNNFYPREAKVQWKVDNALQSGNSQESVTEQDSKDSTYSLSSTLTLSKADYEKHKVYACEVTHQGLSSPVTKSFNRGEC
heavy: not shown
B10 gave an EC50 [1] of 0.46 nM and an EC50 [2] of 0.37 nM.

B11: Peptide-25 (peptide)
peptide: VDFCKIYSWPVCHQ
modifications: cysteine pairing not given here; also: biotinylated (site not given here)
B11 was tested, and the IC50 (TBD-17 (HC S104A) [3]) was 3750 nM, the IC50 (TBD-1 wt [4]) was 3030 nM and the IC50 (TBD-11 (HC R98A) [5]) was 18000 nM. It also gave an IC50 (TBD-22 (HC D109A) [6]) of 290 nM, an IC50 (TBD-6 (LC I93A) [7]) of 1280 nM and an IC50 (TBD-21 (HC F108A) [8]) of 6730 nM. It also gave an IC50 (TBD-17 (HC S104A) [9]) of 3040 nM, an IC50 (TBD-1 wt [10]) of 2580 nM and an IC50 (TBD-11 (HC R98A) [11]) of 8100 nM. For the same binder, the IC50 (TBD-22 (HC D109A) [12]) was 140 nM, the IC50 (TBD-6 (LC I93A) [13]) was 1030 nM and the IC50 (TBD-21 (HC F108A) [14]) was 6450 nM.

B12: Peptide-3 (peptide)
peptide: IDFCMLYNWPICAG
modifications: cysteine pairing not given here; also: biotinylated, site not given here
Work on B12 yielded an IC50 (TBD-17 (HC S104A) [3]) of 1480 nM, an IC50 (TBD-1 wt [4]) of 430 nM and an IC50 (TBD-11 (HC R98A) [5]) of 2720 nM. For the same binder, the IC50 (TBD-22 (HC D109A) [6]) was 120 nM, the IC50 (TBD-6 (LC I93A) [7]) was 530 nM and the IC50 (TBD-21 (HC F108A) [8]) was 2000 nM. It also gave an IC50 (TBD-17 (HC S104A) [9]) of 1010 nM, an IC50 (TBD-1 wt [10]) of 340 nM and an IC50 (TBD-11 (HC R98A) [11]) of 1480 nM. It also gave an IC50 (TBD-22 (HC D109A) [12]) of 90 nM, an IC50 (TBD-6 (LC I93A) [13]) of 370 nM and an IC50 (TBD-21 (HC F108A) [14]) of 2640 nM.

Source: patent publication US20230357429A1 (JANUX THERAPEUTICS, published 2023)
